Results published in paper PMC3404105.

Tests used:
[1] = target: Src family kinase 1 (SFK1) (Lytechinus pictus (endogenous in eggs and egg extract)); assay: FRET or BRET; time-resolved FRET by two-photon time-domain FLIM; unfertilised L. pictus eggs (T0), fixed, labelled with anti-PLCγ-OG488 (donor) and anti-SFK1-Cy5 (acceptor); FRET efficiency from donor lifetime
[2] = target: Src family kinase 1 (SFK1) (Lytechinus pictus (endogenous in eggs and egg extract)); assay: FRET or BRET; time-resolved FRET by two-photon time-domain FLIM; L. pictus eggs three minutes post-fertilisation (T+3), fixed, labelled with anti-PLCγ-OG488 (donor) and anti-SFK1-Cy5 (acceptor); ROI whole egg or male pronucleus
[3] = target: Src family kinase 1 (SFK1) (Lytechinus pictus (endogenous in eggs and egg extract)); assay: FRET or BRET; FRET by single-photon multi-frequency domain FLIM; cell-free assay, demembranated sperm nuclei decondensed in fertilised egg extract (S10) with ATP-GS, no GTP; fixed, labelled with anti-PLCγ-OG488 (donor) and anti-SFK1-Alexa 546 (acceptor)

Q: How did the FRET efficiency % (egg ROI) [1] turn out when phospholipase Cγ (PLCγ) (enzyme) was run?
A: 18.9%

Q: What about the FRET efficiency % (MPN ROI) [2] of the same substance?
A: 4.8%

Q: What about the FRET efficiency % (egg ROI) [2] of the same substance?
A: 5.3%

Q: And the FRET efficiency [3]?
A: 5.7%
